Consider 2 substances from US20080242590A1, “New Method 706” (ASTRAZENECA AB, priority 2007, published 2008).

Where only a bound is given, the exact number is not on record here.

Assay in all cases: cell-based or functional assay
Assay [1] concerns the target amyloid β peptide 1-40 in guinea pig plasma (guinea pig) (UniProt Q60495).
Assay [2] concerns the target amyloid β peptide 1-42 in guinea pig plasma (guinea pig) (UniProt Q60495).
Assay [3] concerns the target amyloid β peptide 1-40 (human) (human).
Assay [4] addresses amyloid β peptide 1-42 (human) (human).

Chain of amyloid β peptide 1-42 (human) (human) (peptide, as listed by the source): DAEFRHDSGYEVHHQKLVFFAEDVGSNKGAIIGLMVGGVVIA
Chain of amyloid β peptide 1-40 (human) (human) (peptide, as listed by the source): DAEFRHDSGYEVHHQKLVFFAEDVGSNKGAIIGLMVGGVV
Chain of Recombinant Human Neprilysin (R&D Systems) (P08473 52-750 limits assumed): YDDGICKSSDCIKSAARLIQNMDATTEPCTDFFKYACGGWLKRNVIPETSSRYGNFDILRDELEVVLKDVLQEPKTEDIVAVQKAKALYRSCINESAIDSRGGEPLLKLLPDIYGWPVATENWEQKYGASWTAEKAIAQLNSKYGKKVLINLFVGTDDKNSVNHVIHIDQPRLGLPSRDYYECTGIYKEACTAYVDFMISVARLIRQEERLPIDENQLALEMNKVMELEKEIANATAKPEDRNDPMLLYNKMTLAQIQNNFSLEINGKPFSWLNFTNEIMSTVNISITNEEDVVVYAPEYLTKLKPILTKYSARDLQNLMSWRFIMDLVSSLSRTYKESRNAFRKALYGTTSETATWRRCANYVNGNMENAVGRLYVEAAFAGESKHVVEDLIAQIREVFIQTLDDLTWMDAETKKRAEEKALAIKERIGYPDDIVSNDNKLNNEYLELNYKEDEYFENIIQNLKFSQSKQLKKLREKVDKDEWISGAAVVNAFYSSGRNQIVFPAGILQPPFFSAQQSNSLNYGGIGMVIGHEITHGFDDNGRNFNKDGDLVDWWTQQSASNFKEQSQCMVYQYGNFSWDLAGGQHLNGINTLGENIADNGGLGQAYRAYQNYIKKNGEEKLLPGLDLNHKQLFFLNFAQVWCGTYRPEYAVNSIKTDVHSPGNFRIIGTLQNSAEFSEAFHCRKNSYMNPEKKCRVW

“Recombinant Human Neprilysin (R&D Systems) (from UniProt P08473 52-750) (enzyme)” returned a degradation of Aβ40 in guinea pig plasma ex vivo compared to vehicle (ELISA), 5 µg/ml, 4 h at 37 °C in assay [1] of 49%. Besides, the reduction of Aβ42 in guinea pig plasma ex vivo compared to vehicle (ELISA), 5 µg/ml, 4 h at 37 °C in assay [2] is over 57%.
In assay [3], “mouse version of the Fc-Nep (mFc-Nep) (Fc fusion)” showed a % degradation of amyloid β 1-40 in APPswe-tg mouse plasma at highest concentration (100 µg/ml), 1 h room temperature, ELISA of 77%; a % degradation of amyloid β 1-40 in human plasma at highest concentration (100 µg/ml), 1 h room temperature, ELISA of 71%; an EC50 of degradation of Aβ 1-40 in APPswe-tg mouse plasma of 340 nM; an EC50 of degradation of Aβ 1-40 in human plasma of 400 nM. In assay [4], this substance registered a % degradation of Aβ 1-42 in APPswe-tg mouse plasma at highest concentration (100 µg/ml), 1 h room temperature, ELISA of 53%; a % degradation of Aβ 1-42 in human plasma at highest concentration (100 µg/ml), 1 h room temperature, ELISA of 19%; an EC50 of degradation of Aβ 1-42 in APPswe-tg mouse plasma of 820 nM; an EC50 of degradation of Aβ 1-42 in human plasma of 180 nM.
